This note sets out measurements from paper PMC5388391.

In data set [1] the target is T1, KLF1 zinc finger domain (WT) (mouse (murine), UniProt P46099 243-358). Put plainly: EMSA. (In EMSA bound probe runs differently from free probe, usually more slowly.)
Data set [2] deals with T2, Nan-KLF1 zinc finger domain (mouse (murine), Nan mutant, UniProt P46099 243-358, E321D). Briefly: EMSA.
Data set [3] addresses T1, KLF1 zinc finger domain (WT). Put plainly: fluorescence polarization. Background: In fluorescence polarisation assays a small probe gives low polarisation when free and higher when bound to something large.
The target in data set [4] is T2, Nan-KLF1 zinc finger domain. Briefly: fluorescence polarization.

T1 sequence (P46099 243-358): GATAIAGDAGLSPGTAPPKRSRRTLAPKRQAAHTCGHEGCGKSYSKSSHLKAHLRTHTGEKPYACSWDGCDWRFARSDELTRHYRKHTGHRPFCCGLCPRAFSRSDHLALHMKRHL
T2 sequence (P46099 243-358 E321D): as the sequence (P46099 243-358) above, with E79D counted along it

B1: beta-globin (Hbb promoter, Category II, TG) (dsDNA)
DNA 1: TAGAGCCACACCCTGGTAAG
DNA 2: CTTACCAGGGTGTGGCTCTA
Take B1: the binding result in data set [1] is on record as “binds”.

B2: Alas2 variant 1 (CA), EMSA (dsDNA)
DNA 1: TCTCTCCCATGCCCTGGGCTC
DNA 2: GAGCCCAGGGCATGGGAGAGA
Consider B2, for which the binding result in data set [2] is on record as “binds”.

B3: Alas2 (Category I, CG), EMSA (dsDNA)
DNA 1: TCTCTCCCACGCCCTGGGCTC
DNA 2: GAGCCCAGGGCGTGGGAGAGA
On to B3, for which the binding result in data set [1] and in data set [2] was “binds” each time.

B4: Alas2 variant 2 (CT), EMSA (dsDNA)
DNA 1: TCTCTCCCAAGCCCTGGGCTC
DNA 2: GAGCCCAGGGCTTGGGAGAGA
With B4, the binding result in data set [2] is reported as “binds”.

B5: Alas2 variant 3 (AG), EMSA (dsDNA)
DNA 1: TCTCTCCCACTCCCTGGGCTC
DNA 2: GAGCCCAGGGAGTGGGAGAGA
For B5, the binding result in data set [2] is given as “binds”.

B6: Alas2_fp (CG) (dsDNA)
DNA 1: TTCTCTCCCACGCCCTGGGCTC
DNA 2: GAGCCCAGGGCGTGGGAGAGA
modifications: 5' fluorescein-dT (/5FluorT/) preceding S51, written as T
For orientation: Kd means the free concentration of one partner at which half of the binding sites on the other are occupied at equilibrium, for simple one-to-one binding. A low value points to tighter binding. In the case of B6, the Kd stood at 150 nM in data set [3] and 130 nM in data set [4].
